Columns and labels:
human FcγRIIb (human) = human FcγRIIb (human) (UniProt P31994); assay: compared with fucosylated wild-type human IgG1; MSD per FIGS. 10A-10C
[1] = biological target: human FcγRIIa (H131 allele) (human) (UniProt P12318); assay: as above
[2] = biological target: human FcγRIIa (R131 allele) (human) (UniProt P12318); assay: as above
human C1q (human) = human C1q (human) (UniProt P02745); assay: C1q binding assay (FIG. 15: antibody Fc captured on Octet sensor, human C1q in solution)
Sequence of human C1q (human) (P02745 23-245 limits assumed, chain 1 of 3): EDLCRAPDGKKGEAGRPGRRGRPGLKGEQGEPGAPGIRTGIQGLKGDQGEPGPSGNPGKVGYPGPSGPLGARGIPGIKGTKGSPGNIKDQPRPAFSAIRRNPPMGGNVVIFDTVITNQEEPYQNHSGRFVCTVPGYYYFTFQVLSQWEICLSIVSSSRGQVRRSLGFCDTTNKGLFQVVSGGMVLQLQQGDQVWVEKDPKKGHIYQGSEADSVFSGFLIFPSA
Sequence of human C1q (human) (P02746 28-253 limits assumed, chain 2 of 3, further chain): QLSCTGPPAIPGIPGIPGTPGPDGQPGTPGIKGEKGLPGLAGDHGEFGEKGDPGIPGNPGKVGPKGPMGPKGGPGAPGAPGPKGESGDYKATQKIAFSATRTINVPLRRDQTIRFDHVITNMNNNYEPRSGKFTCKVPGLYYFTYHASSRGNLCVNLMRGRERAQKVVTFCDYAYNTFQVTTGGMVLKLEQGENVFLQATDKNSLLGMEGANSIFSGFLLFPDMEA
Sequence of human C1q (human) (P02747 29-245 limits assumed, chain 3 of 3, further chain): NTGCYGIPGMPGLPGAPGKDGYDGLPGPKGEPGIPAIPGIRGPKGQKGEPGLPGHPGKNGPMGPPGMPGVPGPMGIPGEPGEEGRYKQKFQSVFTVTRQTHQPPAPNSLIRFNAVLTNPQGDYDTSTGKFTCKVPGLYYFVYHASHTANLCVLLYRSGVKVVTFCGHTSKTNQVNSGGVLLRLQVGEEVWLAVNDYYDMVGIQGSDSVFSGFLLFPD

Sequence of human FcγRIIa (R131 allele) (human) (P12318 34-218 H167R limits assumed): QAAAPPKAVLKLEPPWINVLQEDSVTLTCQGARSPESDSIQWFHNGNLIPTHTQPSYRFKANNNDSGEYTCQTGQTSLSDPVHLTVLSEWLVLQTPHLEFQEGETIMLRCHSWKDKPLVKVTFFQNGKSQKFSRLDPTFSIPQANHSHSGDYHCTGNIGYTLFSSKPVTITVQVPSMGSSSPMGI
Sequence of human FcγRIIb (human) (P31994 43-217 limits assumed): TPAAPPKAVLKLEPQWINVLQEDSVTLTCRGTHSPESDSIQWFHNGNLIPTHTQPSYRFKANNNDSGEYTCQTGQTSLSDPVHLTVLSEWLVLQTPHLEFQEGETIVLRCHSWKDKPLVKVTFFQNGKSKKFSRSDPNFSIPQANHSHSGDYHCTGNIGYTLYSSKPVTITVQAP
Sequence of human FcγRIIa (H131 allele) (human) (P12318 34-218 limits assumed): as the sequence (P12318 34-218 H167R limits assumed) above, with R134H counted along it

Row | Substance | fold-change in binding vs fucosylated wild-type human IgG1 (human FcγRIIb (human)) [fold] | fold-change in binding vs fucosylated wild-type human IgG1 [1] [fold] | fold-change in binding vs fucosylated wild-type human IgG1 [2] [fold] | C1q binding relative to reference IgG1 antibody bearing M428L and N434S mutations only (human C1q (human))
1 | G236A_R292P (antibody) | < 0.5 | – | – | –
2 | G236S_G420V_G446E_L309T (antibody) | < 0.5 | – | – | –
3 | G236A_Y300L (antibody) | – | > 18 | > 4 | –
4 | G236A_R292P_Y300L (antibody) | – | > 14 | > 2.7 | –
5 | afucosylated Fc variant antibodies bearing the G236A ("GA") mutation (antibody) | – | – | – | 0.3 fold (×)

Source: patent US20250296986A1
